Data taken from PMC5797828 (Cancer Science, 2017).

Target: T1, Human γ-catenin, MYC/DDK-Tag (recombinant) (human, UniProt P14923 1-745)
T1 sequence (looked up): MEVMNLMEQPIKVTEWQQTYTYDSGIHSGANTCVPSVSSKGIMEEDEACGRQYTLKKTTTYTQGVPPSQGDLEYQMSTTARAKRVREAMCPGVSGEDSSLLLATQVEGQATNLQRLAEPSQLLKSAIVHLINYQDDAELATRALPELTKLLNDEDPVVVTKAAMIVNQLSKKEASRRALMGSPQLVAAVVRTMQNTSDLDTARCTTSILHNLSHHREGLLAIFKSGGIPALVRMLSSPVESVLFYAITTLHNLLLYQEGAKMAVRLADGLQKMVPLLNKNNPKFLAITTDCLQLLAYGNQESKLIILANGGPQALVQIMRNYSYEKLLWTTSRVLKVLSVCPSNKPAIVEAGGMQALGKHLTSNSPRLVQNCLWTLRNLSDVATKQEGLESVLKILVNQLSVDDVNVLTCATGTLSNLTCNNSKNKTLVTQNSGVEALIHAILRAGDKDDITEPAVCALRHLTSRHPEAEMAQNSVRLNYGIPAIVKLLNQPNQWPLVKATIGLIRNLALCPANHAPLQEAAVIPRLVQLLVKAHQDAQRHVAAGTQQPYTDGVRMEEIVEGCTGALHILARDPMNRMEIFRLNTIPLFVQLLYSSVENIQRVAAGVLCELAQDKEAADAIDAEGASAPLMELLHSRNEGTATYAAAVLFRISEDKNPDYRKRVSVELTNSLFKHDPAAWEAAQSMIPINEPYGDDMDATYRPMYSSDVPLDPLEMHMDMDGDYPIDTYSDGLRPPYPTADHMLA
Experiment: SPR

B1: Human PRDM14, GST-Tag at N-terminus (GST-PRDM14) (natural protein, UniProt Q9GZV8 1-571, looked up)
chain: MALPRPSEAVPQDKVCYPPESSPQNLAAYYTPFPSYGHYRNSLATVEEDFQPFRQLEAAASAAPAMPPFPFRMAPPLLSPGLGLQREPLYDLPWYSKLPPWYPIPHVPREVPPFLSSSHEYAGASSEDLGHQIIGGDNESGPCCGPDTLIPPPPADASLLPEGLRTSQLLPCSPSKQSEDGPKPSNQEGKSPARFQFTEEDLHFVLYGVTPSLEHPASLHHAISGLLVPPDSSGSDSLPQTLDKDSLQLPEGLCLMQTVFGEVPHFGVFCSSFIAKGVRFGPFQGKVVNASEVKTYGDNSVMWEIFEDGHLSHFIDGKGGTGNWMSYVNCARFPKEQNLVAVQCQGHIFYESCKEIHQNQELLVWYGDCYEKFLDIPVSLQVTEPGKQPSGPSEESAEGYRCERCGKVFTYKYYRDKHLKYTPCVDKGDRKFPCSLCKRSFEKRDRLRIHILHVHEKHRPHKCSTCGKCFSQSSSLNKHMRVHSGDRPYQCVYCTKRFTASSILRTHIRQHSGEKPFKCKYCGKSFASHAAHDSHVRRSHKEDDGCSCSICGKIFSDQETFYSHMKFHEDY
B1: binds.
